Measurements as given in patent US20150344540A1, “NOVEL GLP-1 RECEPTOR AGONISTS WITH CHOLESTEROL EFFLUX ACTIVITY” (NOVO NORDISK A/S, priority 2012, published 2015).
Where no end group is shown, it is not given here. [ ]: non-standard residue; d: D form. Aib = CC(C)(N)C(=O)O

These molecules were tested against human GLP-1 receptor (Homo sapiens, UniProt P43220) (assay: Functional GLP-1 receptor assay, in vitro potency (CRE luciferase; whole cells)). Details: BHK cells expressing human GLP-1 receptor, 0% HSA; read-out: GLP1R CRE luc 0% HSA EC50 Mean Value.
Type: cell-based

human GLP-1 receptor (Homo sapiens, UniProt P43220), sequence (P43220 24-463): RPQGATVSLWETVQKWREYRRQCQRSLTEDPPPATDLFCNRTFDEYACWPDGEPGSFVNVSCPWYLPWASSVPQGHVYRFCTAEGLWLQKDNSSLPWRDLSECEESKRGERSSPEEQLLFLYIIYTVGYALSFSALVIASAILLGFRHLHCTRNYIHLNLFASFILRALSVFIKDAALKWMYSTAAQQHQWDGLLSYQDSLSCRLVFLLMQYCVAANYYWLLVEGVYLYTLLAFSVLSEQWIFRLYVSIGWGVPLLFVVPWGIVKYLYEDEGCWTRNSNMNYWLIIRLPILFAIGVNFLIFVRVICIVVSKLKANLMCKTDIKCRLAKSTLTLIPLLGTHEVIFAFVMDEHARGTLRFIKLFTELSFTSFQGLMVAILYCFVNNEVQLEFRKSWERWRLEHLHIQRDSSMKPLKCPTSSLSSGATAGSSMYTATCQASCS

Molecule | EC50 [nM]
HAEGTFTSDVSSYLEGQAAKEFIAWLVEKVGEFL-NH2 [Compound 108] | 0.059

Same assay, conditions: GLP1R CRE luc 1% HSA EC50 Mean Value, BHK cells expressing human GLP-1 receptor, 1% HSA

Molecule | EC50 [nM]
H-HAEGTFTSDVSSYLEGQAAKEFIAWLVEGVKEFLEK-OH [Compound 127, [Glu34,Val36,Lys37]-GLP-1-(7-37)-peptidyl-Glu-Phe-Leu-Glu-Lys] | 0.023
HAEGTFTSDVSSYLEGQAAKEFIAWLVEKVGEFL-NH2 [Compound 108] | 0.017

These molecules were tested against human GLP-1 receptor (human, UniProt P43220) (assay: cell-based or functional assay). Details: not given.

Molecule | CRE luciferase EC50, 0% HSA [nM] | CRE luciferase EC50, 1% HSA [nM]
HAEGTFTNDMTNYLEGEAVKEFIAWLVEK[Aib]KEFL-NH2 (N-terminus assumed; SMILES CC[C@H](C)[C@H](NC(=O)[C@H](Cc1ccccc1)NC(=O)[C@H](CCC(=O)O)NC(=O)[C@H](CCCCN)NC(=O)[C@@H](NC(=O)[C@H](C)NC(=O)[C@H](CCC(=O)O)NC(=O)CNC(=O)[C@H](CCC(=O)O)NC(=O)[C@H](CC(C)C)NC(=O)[C@H](Cc1ccc(O)cc1)NC(=O)[C@H](CC(N)=O)NC(=O)[C@@H](NC(=O)[C@H](CCSC)NC(=O)[C@H](CC(=O)O)NC(=O)[C@H](CC(N)=O)NC(=O)[C@@H](NC(=O)[C@H](Cc1ccccc1)NC(=O)[C@@H](NC(=O)CNC(=O)[C@H](CCC(=O)O)NC(=O)[C@H](C)NC(=O)[C@@H](N)Cc1c[nH]cn1)[C@@H](C)O)[C@@H](C)O)[C@@H](C)O)C(C)C)C(=O)N[C@@H](C)C(=O)N[C@@H](Cc1c[nH]c2ccccc12)C(=O)N[C@@H](CC(C)C)C(=O)N[C@H](C(=O)N[C@@H](CCC(=O)O)C(=O)N[C@@H](CCCCN)C(=O)NC(C)(C)C(=O)N[C@@H](CCCCN)C(=O)N[C@@H](CCC(=O)O)C(=O)N[C@@H](Cc1ccccc1)C(=O)N[C@@H](CC(C)C)C(N)=O)C(C)C) | 0.186 | 0.077
H[Aib]EGTFTSDVSSYLEGEAVKEFIAWLVEKFKEAF-NH2 (N-terminus assumed; SMILES CC[C@H](C)[C@H](NC(=O)[C@H](Cc1ccccc1)NC(=O)[C@H](CCC(=O)O)NC(=O)[C@H](CCCCN)NC(=O)[C@@H](NC(=O)[C@H](C)NC(=O)[C@H](CCC(=O)O)NC(=O)CNC(=O)[C@H](CCC(=O)O)NC(=O)[C@H](CC(C)C)NC(=O)[C@H](Cc1ccc(O)cc1)NC(=O)[C@H](CO)NC(=O)[C@H](CO)NC(=O)[C@@H](NC(=O)[C@H](CC(=O)O)NC(=O)[C@H](CO)NC(=O)[C@@H](NC(=O)[C@H](Cc1ccccc1)NC(=O)[C@@H](NC(=O)CNC(=O)[C@H](CCC(=O)O)NC(=O)C(C)(C)NC(=O)[C@@H](N)Cc1c[nH]cn1)[C@@H](C)O)[C@@H](C)O)C(C)C)C(C)C)C(=O)N[C@@H](C)C(=O)N[C@@H](Cc1c[nH]c2ccccc12)C(=O)N[C@@H](CC(C)C)C(=O)N[C@H](C(=O)N[C@@H](CCC(=O)O)C(=O)N[C@@H](CCCCN)C(=O)N[C@@H](Cc1ccccc1)C(=O)N[C@@H](CCCCN)C(=O)N[C@@H](CCC(=O)O)C(=O)N[C@@H](C)C(=O)N[C@@H](Cc1ccccc1)C(N)=O)C(C)C) [[Aib8,Glu23,Val25,Glu34,Lys35,Phe36,Lys37]-GLP-1-(7-37)-peptidyl-Glu-Ala-Phe amide] | 0.372 | 0.115
H[Aib]EGTFTSDVSSYLEGQAAKEFIAWLVEK[Aib]KEFL-NH2 (N-terminus assumed; SMILES CC[C@H](C)[C@H](NC(=O)[C@H](Cc1ccccc1)NC(=O)[C@H](CCC(=O)O)NC(=O)[C@H](CCCCN)NC(=O)[C@H](C)NC(=O)[C@H](C)NC(=O)[C@H](CCC(N)=O)NC(=O)CNC(=O)[C@H](CCC(=O)O)NC(=O)[C@H](CC(C)C)NC(=O)[C@H](Cc1ccc(O)cc1)NC(=O)[C@H](CO)NC(=O)[C@H](CO)NC(=O)[C@@H](NC(=O)[C@H](CC(=O)O)NC(=O)[C@H](CO)NC(=O)[C@@H](NC(=O)[C@H](Cc1ccccc1)NC(=O)[C@@H](NC(=O)CNC(=O)[C@H](CCC(=O)O)NC(=O)C(C)(C)NC(=O)[C@@H](N)Cc1c[nH]cn1)[C@@H](C)O)[C@@H](C)O)C(C)C)C(=O)N[C@@H](C)C(=O)N[C@@H](Cc1c[nH]c2ccccc12)C(=O)N[C@@H](CC(C)C)C(=O)N[C@H](C(=O)N[C@@H](CCC(=O)O)C(=O)N[C@@H](CCCCN)C(=O)NC(C)(C)C(=O)N[C@@H](CCCCN)C(=O)N[C@@H](CCC(=O)O)C(=O)N[C@@H](Cc1ccccc1)C(=O)N[C@@H](CC(C)C)C(N)=O)C(C)C) [[Aib8,Glu34,Lys35,Aib36,Lys37]-GLP-1-(7-37)-peptidyl-Glu-Phe-Leu amide] | 0.108 | 0.042
H[Aib]EGTFTSDLSKQMEEEAVREFIEWLKNK[Aib]LEFLALL-NH2 (N-terminus assumed; SMILES CC[C@H](C)[C@H](NC(=O)[C@H](Cc1ccccc1)NC(=O)[C@H](CCC(=O)O)NC(=O)[C@H](CCCNC(=N)N)NC(=O)[C@@H](NC(=O)[C@H](C)NC(=O)[C@H](CCC(=O)O)NC(=O)[C@H](CCC(=O)O)NC(=O)[C@H](CCC(=O)O)NC(=O)[C@H](CCSC)NC(=O)[C@H](CCC(N)=O)NC(=O)[C@H](CCCCN)NC(=O)[C@H](CO)NC(=O)[C@H](CC(C)C)NC(=O)[C@H](CC(=O)O)NC(=O)[C@H](CO)NC(=O)[C@@H](NC(=O)[C@H](Cc1ccccc1)NC(=O)[C@@H](NC(=O)CNC(=O)[C@H](CCC(=O)O)NC(=O)C(C)(C)NC(=O)[C@@H](N)Cc1c[nH]cn1)[C@@H](C)O)[C@@H](C)O)C(C)C)C(=O)N[C@@H](CCC(=O)O)C(=O)N[C@@H](Cc1c[nH]c2ccccc12)C(=O)N[C@@H](CC(C)C)C(=O)N[C@@H](CCCCN)C(=O)N[C@@H](CC(N)=O)C(=O)N[C@@H](CCCCN)C(=O)NC(C)(C)C(=O)N[C@@H](CC(C)C)C(=O)N[C@@H](CCC(=O)O)C(=O)N[C@@H](Cc1ccccc1)C(=O)N[C@@H](CC(C)C)C(=O)N[C@@H](C)C(=O)N[C@@H](CC(C)C)C(=O)N[C@@H](CC(C)C)C(N)=O) [[Aib2,Glu21,Lys29,Aib30,Leu31,Glu32,Phe33,Leu34,Leu36,Leu37]-Exendin-4-(1-37)-peptide amide] | 0.754 | 0.388
H[Aib]EGTFTSDLSKQMEEEAVREFIEWLKNK[Aib]LEFLEPL-NH2 (N-terminus assumed; SMILES CC[C@H](C)[C@H](NC(=O)[C@H](Cc1ccccc1)NC(=O)[C@H](CCC(=O)O)NC(=O)[C@H](CCCNC(=N)N)NC(=O)[C@@H](NC(=O)[C@H](C)NC(=O)[C@H](CCC(=O)O)NC(=O)[C@H](CCC(=O)O)NC(=O)[C@H](CCC(=O)O)NC(=O)[C@H](CCSC)NC(=O)[C@H](CCC(N)=O)NC(=O)[C@H](CCCCN)NC(=O)[C@H](CO)NC(=O)[C@H](CC(C)C)NC(=O)[C@H](CC(=O)O)NC(=O)[C@H](CO)NC(=O)[C@@H](NC(=O)[C@H](Cc1ccccc1)NC(=O)[C@@H](NC(=O)CNC(=O)[C@H](CCC(=O)O)NC(=O)C(C)(C)NC(=O)[C@@H](N)Cc1c[nH]cn1)[C@@H](C)O)[C@@H](C)O)C(C)C)C(=O)N[C@@H](CCC(=O)O)C(=O)N[C@@H](Cc1c[nH]c2ccccc12)C(=O)N[C@@H](CC(C)C)C(=O)N[C@@H](CCCCN)C(=O)N[C@@H](CC(N)=O)C(=O)N[C@@H](CCCCN)C(=O)NC(C)(C)C(=O)N[C@@H](CC(C)C)C(=O)N[C@@H](CCC(=O)O)C(=O)N[C@@H](Cc1ccccc1)C(=O)N[C@@H](CC(C)C)C(=O)N[C@@H](CCC(=O)O)C(=O)N1CCC[C@H]1C(=O)N[C@@H](CC(C)C)C(N)=O) [[Aib2,Glu21,Lys29,Aib30,Leu31,Glu32,Phe33,Leu34,Glu35,Leu37]-Exendin-4-(1-37)-peptide amide] | 0.032 | 0.013
H[Aib]EGTFTSDLSKQMEEEAVREFIEWLKNK[Aib]LEFLELP-NH2 (N-terminus assumed; SMILES CC[C@H](C)[C@H](NC(=O)[C@H](Cc1ccccc1)NC(=O)[C@H](CCC(=O)O)NC(=O)[C@H](CCCNC(=N)N)NC(=O)[C@@H](NC(=O)[C@H](C)NC(=O)[C@H](CCC(=O)O)NC(=O)[C@H](CCC(=O)O)NC(=O)[C@H](CCC(=O)O)NC(=O)[C@H](CCSC)NC(=O)[C@H](CCC(N)=O)NC(=O)[C@H](CCCCN)NC(=O)[C@H](CO)NC(=O)[C@H](CC(C)C)NC(=O)[C@H](CC(=O)O)NC(=O)[C@H](CO)NC(=O)[C@@H](NC(=O)[C@H](Cc1ccccc1)NC(=O)[C@@H](NC(=O)CNC(=O)[C@H](CCC(=O)O)NC(=O)C(C)(C)NC(=O)[C@@H](N)Cc1c[nH]cn1)[C@@H](C)O)[C@@H](C)O)C(C)C)C(=O)N[C@@H](CCC(=O)O)C(=O)N[C@@H](Cc1c[nH]c2ccccc12)C(=O)N[C@@H](CC(C)C)C(=O)N[C@@H](CCCCN)C(=O)N[C@@H](CC(N)=O)C(=O)N[C@@H](CCCCN)C(=O)NC(C)(C)C(=O)N[C@@H](CC(C)C)C(=O)N[C@@H](CCC(=O)O)C(=O)N[C@@H](Cc1ccccc1)C(=O)N[C@@H](CC(C)C)C(=O)N[C@@H](CCC(=O)O)C(=O)N[C@@H](CC(C)C)C(=O)N1CCC[C@H]1C(N)=O) [[Aib2,Glu21,Lys29,Aib30,Leu31,Glu32,Phe33,Leu34,Glu35,Leu36]-Exendin-4-(1-37)-peptide amide] | 0.023 | 0.01
H[Aib]EGTFTSDVSSYLEGEAVREFIAWLVER[Aib]REFL-NH2 (N-terminus assumed; SMILES CC[C@H](C)[C@H](NC(=O)[C@H](Cc1ccccc1)NC(=O)[C@H](CCC(=O)O)NC(=O)[C@H](CCCNC(=N)N)NC(=O)[C@@H](NC(=O)[C@H](C)NC(=O)[C@H](CCC(=O)O)NC(=O)CNC(=O)[C@H](CCC(=O)O)NC(=O)[C@H](CC(C)C)NC(=O)[C@H](Cc1ccc(O)cc1)NC(=O)[C@H](CO)NC(=O)[C@H](CO)NC(=O)[C@@H](NC(=O)[C@H](CC(=O)O)NC(=O)[C@H](CO)NC(=O)[C@@H](NC(=O)[C@H](Cc1ccccc1)NC(=O)[C@@H](NC(=O)CNC(=O)[C@H](CCC(=O)O)NC(=O)C(C)(C)NC(=O)[C@@H](N)Cc1c[nH]cn1)[C@@H](C)O)[C@@H](C)O)C(C)C)C(C)C)C(=O)N[C@@H](C)C(=O)N[C@@H](Cc1c[nH]c2ccccc12)C(=O)N[C@@H](CC(C)C)C(=O)N[C@H](C(=O)N[C@@H](CCC(=O)O)C(=O)N[C@@H](CCCNC(=N)N)C(=O)NC(C)(C)C(=O)N[C@@H](CCCNC(=N)N)C(=O)N[C@@H](CCC(=O)O)C(=O)N[C@@H](Cc1ccccc1)C(=O)N[C@@H](CC(C)C)C(N)=O)C(C)C) [[Aib8,Glu23,Val25,Arg26,Glu34,Arg35,Aib36,Arg37]-GLP-1-(7-37)-peptidyl-Glu-Phe-Leu amide] | 0.086 | 0.041
